The results in this text go back to patent US7262289 (Bristol-Myers Squibb, dated 2007).

The target in this assay is T1, human KCNQ3/KvLR2 (human, UniProt O43525 25-872).
T1 sequence: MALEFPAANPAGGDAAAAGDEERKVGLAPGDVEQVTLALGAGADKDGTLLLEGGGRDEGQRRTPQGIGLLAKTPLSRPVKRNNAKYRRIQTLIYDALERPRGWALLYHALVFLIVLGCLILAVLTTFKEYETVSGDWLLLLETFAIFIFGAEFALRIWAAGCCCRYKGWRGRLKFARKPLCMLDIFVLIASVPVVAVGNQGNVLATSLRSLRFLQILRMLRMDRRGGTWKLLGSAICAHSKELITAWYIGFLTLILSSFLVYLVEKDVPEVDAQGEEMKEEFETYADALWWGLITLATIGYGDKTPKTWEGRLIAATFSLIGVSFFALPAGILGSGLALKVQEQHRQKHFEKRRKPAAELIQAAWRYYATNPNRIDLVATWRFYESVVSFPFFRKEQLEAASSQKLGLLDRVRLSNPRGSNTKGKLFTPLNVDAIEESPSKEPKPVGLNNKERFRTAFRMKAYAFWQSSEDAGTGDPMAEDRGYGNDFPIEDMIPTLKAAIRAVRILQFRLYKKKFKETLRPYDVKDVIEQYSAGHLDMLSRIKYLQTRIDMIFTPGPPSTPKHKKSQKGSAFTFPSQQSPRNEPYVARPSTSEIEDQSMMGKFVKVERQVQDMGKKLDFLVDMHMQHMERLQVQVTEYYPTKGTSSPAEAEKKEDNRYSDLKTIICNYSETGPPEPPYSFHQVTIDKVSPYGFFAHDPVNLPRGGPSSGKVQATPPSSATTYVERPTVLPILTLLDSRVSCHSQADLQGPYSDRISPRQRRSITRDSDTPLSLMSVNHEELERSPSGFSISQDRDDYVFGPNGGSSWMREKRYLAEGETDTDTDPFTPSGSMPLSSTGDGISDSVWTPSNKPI
Kind of assay: cell-based or functional assay.

B1: human KCNQ2/KvLR1 (other)
chain: MVQKSRNGGVYPGPSGEKKLKVGFVGLDPGAPDSTRDGALLIAGSEAPKRGSILSKPRAGGAGAGKPPKRNAFYRKLQNFLYNVLERPRGWAFIYHAYVFLLVFSCLVLSVFSTIKEYEKSSEGALYILEIVTIVVFGVEYFVRIWAAGCCCRYRGWRGRLKFARKPFCVIDIMVLIASIAVLAAGSQGNVFATSALRSLRFLQILRMIRMDRRGGTWKLLGSVVYAHSKELVTAWYIGFLCLILASFLVYLAEKGENDHFDTYADALWWGLITLTTIGYGDKYPQTWNGRLLAATFTLIGVSFFALPAGILGSGFALKVQEQHRQKHFEKRRNPAAGLIQSAWRFYATNLSRTDLHSTWQYYERTVTVPMYSSQTQTYGASRLIPPLNQLELLRNLKSKSGLAFRKDPPPEPSPSKGSPCRGPLCGCCPGRSSQKVSLKDRVFSSPRGVAAKGKGSPQAQTVRRSPSADQSLEDSPSKVPKSWSFGDRSRARQAFRIKGAASRQNSEASLPGEDIVDDKSCPCEFVTEDLTPGLKVSIRAVCVMRFLVSKRKFKESLRPYDVMDVIEQYSAGHLDMLSRIKSLQSRVDQIVGRGPAITDKDRTKGPAEAELPEDPSMMGRLGKVEKQVLSMEKKLDFLVNIYMQRMGIPPTETEAYFGAKEPEPAPPYHSPEDSREHVDRHGCIVKIVRSSSSTGQKNFSAPPAAPPVQCPPSTSWQPQSHPRQGHGTSPVGDHGSLVRIPPPPAHERSLSAYGGGNRASMEFLRQEDTPGCRPPEGTLRDSDTSISIPSVDHEELERSFSGFSISQSKENLDALNSCYAAVAPCAKVRPYIAEGESDTDSDLCTPCGPPPRSATGEGPFGDVGWAGPRK
Consider B1, for which the “current amplitude in oocytes co-expressing KCNQ2 and KCNQ3 against oocytes injected with each channel alone (two-electrode voltage clamp)” value came out at 15 fold; the “shift of tail current reversal potential per 10-fold change in external K+ for KCNQ2+KCNQ3” value was found to be 57 mV.
